Tested on: CD34^+α6^+ HFSCs
Assay: 3D-ECM culture of mouse keratinocytes, CD34+α6+ HFSCs quantified by flow cytometry
Type: cell-based
Conditions: for percentage of CD34+α6+ HFSCs: vs untreated 3C; for growth/expansion of CD34+α6+ HFSCs when FGF-2 or VEGF-164 is replaced: in the 3C, YF and/or YV media, compared with FGF-2 / VEGF-164; for normalized CD34+α6+ content of cultures: day 14 Matrigel
Method: Keratinocytes were isolated from back skin of mice by incubating skin pieces in 0.8% Trypsin (Gibco) for 50 min at 37° C. After separating the epidermis from the underlying dermis, cells were homogenized, filtered through 70 μm and 45 μm cell strainers (BD Biosciences) and pelleted at 900 rpm for 3 min. For 2D culture of epidermis-derived cells, tissue culture petri dished were coated with a mixture of collagen I (30 μg/ml)+fibronectin (10 μg/ml; both from Millipore) in MEM for 1 h at 37° C. prior to plating of cells. Epidermis-derived cells were suspended in KGM or in FAD medium, and seeded on the coated plastic dishes. Medium was exchanged the next day after initial seeding and thereafter every second day. […] For 3D culture of HFSCs, 8×10^4 cells were resuspended in 40 μl ice-cold 1:1 KGM:Matrigel mixture that was dispensed as a droplet in 24-well cell culture dishes. The suspension was allowed to solidify for 15 min after which it was overlaid with 500 μl of stem cell media. The following media compositions were used: KGM basal medium, medium Y (KGM, 5 μM Y27632, 10 ng/ml human recombinant EGF), medium Y-E (KGM, 5 μM Y27632), medium YV (KGM, 5 μM Y27632, 10 ng/ml human recombinant EGF, 20 ng/ml mouse recombinant VEGF), medium YF (KGM, 5 μM Y27632, 10 ng/ml human recombinant EGF, 20 ng/ml human recombinant FGF-2), 3C (KGM, 5 μM Y27632, 10 ng/ml human recombinant EGF, 20 ng/ml mouse recombinant VEGF, 20 ng/ml human recombinant FGF-2), and 3C-E (KGM, 5 μM Y27632, 20 ng/ml mouse recombinant VEGF, 20 ng/ml human recombinant FGF-2).
For cell passaging and flow cytometry cultured hair follicle stem cells were extracted from Matrigel by mechanical homogenization and incubation in 0.5% Trypsin (Gibco), 0.5 mM EDTA, PBS or Accutase (Gibco) for 10 min at 37° C.
Single cell suspensions prepared from murine back skin (described above) or from cultured cells were rinsed once with KGM and stained with fluorescently labeled antibodies for 30 min on ice. After two washes with FACS Buffer (2% FCS, 2 mM EDTA, PBS) cells were measured in a BD FACS Canto II and data was analyzed using FlowJo software version 10. For purification of cell populations (cell sorting) a BD FACS Aria II or a BD FACS Aria Fusion were used. Cells were sorted in KGM medium at 4′C. Expression of cell surface markers was analyzed on live cells after exclusion of cell doublets and dead cells, respectively.

[1] = cyclopamine 10 μM for 5 days added to 3C cultures
[2] = 3C conditions (Y27632+EGF+FGF+VEGF), vs VEGF-164 or FGF-2 set to 1
[3] = YF conditions (Y27632+EGF+FGF), vs FGF-2 set to 1

Molecule: COc1cc(-c2cc(-c3cccc(O)c3)cnc2N)cc(OC)c1OC [K02288, 3-[6-amino-5-(3,4,5-trimethoxyphenyl)pyridin-3-yl]phenol, reference compound]
- percentage of CD34+α6+ HFSCs (3C conditions 14 days with K02288 10 nM): decrease

Molecule: C[C@@H](N)[C@H]1CC[C@H](C(=O)Nc2ccncc2)CC1.Cl.Cl.O [Y27632, (R)-(+)-trans-4-(1-aminoethyl)-N-(4-Pyridyl)cyclohexanecarboxamide dihydrochloride monohydrate, reference compound]
- requirement of ROCK inhibitor for HFSC growth and expansion (3C conditions, from the beginning of the culturing time): essential

Molecule: CC1=C2C[C@H]3[C@@H](CC=C4C[C@@H](O)CC[C@@]43C)[C@@H]2CC[C@]12O[C@@H]1C[C@H](C)CN[C@H]1[C@H]2C [cyclopamine, (2′R,3S,3′R,3′aS,6'S,6aS,6bS,7′aR,11aS,11bR)-1,2,3,3′a,4,4′,5′,6,6′,6a,6b,7,7′,7′a,8,11,11a,11b-Octadecahydro-3′,6′,10,11b-tetramethylspiro[9H-benzo[a]fluorene-9,2′(3′H)-furo[3,2-b]pyridin]-3-ol, reference compound]
- proportion of HFSCs in the cultured cell mixture (3C conditions 9 days, then cyclopamine 10 μM for 5 days, flow cytometry day 14): up to 93.6%
- total cell numbers [1]: decrease
- percentage of CD34+α6+ HFSCs [1]: elevated

B1: FGF-18: human recombinant FGF-18 (protein, UniProt O76093 28-207, looked up)
Fibroblast growth factor 18: EENVDFRIHVENQTRARDDVSRKQLRLYQLYSRTSGKHIQVLGRRISARGEDGDKYAQLLVETDTFGSQVRIKGKETEFYLCMNRKGKLVGKPDGTSKECVFIEKVLENNYTALMSAKYSGWYVGFTKKGRPRKGPKTRENQQDVHFMKRYPKGQPELQKPFKYTTVTKRSRRIRPTHPA
- growth/expansion of CD34+α6+ HFSCs when FGF-2 or VEGF-164 is replaced: Comparable

B2: FGF-7: human recombinant FGF-7 (protein, UniProt P21781 32-194, looked up)
Fibroblast growth factor 7: CNDMTPEQMATNVNCSSPERHTRSYDYMEGGDIRVRRLFCRTQWYLRIDKRGKVKGTQEMKNNYNIMEIRTVAVGIVAIKGVESEFYLAMNKEGKLYAKKECNEDCNFKELILENHYNTYASAKWTHNGGEMFVALNQKGIPVRGKKTKKEQKTAHFLPMAIT
- normalized CD34+α6+ content of cultures [2]: perform equally well
- normalized CD34+α6+ content of cultures [3]: perform equally well
- growth/expansion of CD34+α6+ HFSCs when FGF-2 or VEGF-164 is replaced: Comparable

B3: FGF-10: human recombinant FGF-10 (protein, UniProt O15520 38-208, looked up)
Fibroblast growth factor 10: QALGQDMVSPEATNSSSSSFSSPSSAGRHVRSYNHLQGDVRWRKLFSFTKYFLKIEKNGKVSGTKKENCPYSILEITSVEIGVVAVKAINSNYYLAMNKKGKLYGSKEFNNDCKLKERIEENGYNTYASFNWQHNGRQMYVALNGKGAPRRGQKTRRKNTSAHFLPMVVHS
- normalized CD34+α6+ content of cultures [2]: perform equally well
- normalized CD34+α6+ content of cultures [3]: perform equally well
- growth/expansion of CD34+α6+ HFSCs when FGF-2 or VEGF-164 is replaced: Comparable
